What was measured:
Test in all cases: flow cytometry on cells; biotinylated ligand at various concentrations, 30 min at 4 °C in PBS + 0.1% BSA, on Drosophila S2 cells displaying the partner (C-terminal FLAG, rat Neurexin-1 transmembrane helix); Cy5-streptavidin; gated on anti-FLAG positive cells; MFI fit to a single-site model; apparent KD
Conditions in all cases: one partner purified
[1] = target: T1, hRobo3 FN1-3 E639A, biotinylated (human, UniProt Q96MS0 549-870, E639A, biotin on the Avi-tag (BirA))
T1 construct: human Robo3, FN domains 1-3, P549-L870; source: High Five cells (baculovirus), purified, biotinylated with BirA (general methods)
T1 sequence (looked up): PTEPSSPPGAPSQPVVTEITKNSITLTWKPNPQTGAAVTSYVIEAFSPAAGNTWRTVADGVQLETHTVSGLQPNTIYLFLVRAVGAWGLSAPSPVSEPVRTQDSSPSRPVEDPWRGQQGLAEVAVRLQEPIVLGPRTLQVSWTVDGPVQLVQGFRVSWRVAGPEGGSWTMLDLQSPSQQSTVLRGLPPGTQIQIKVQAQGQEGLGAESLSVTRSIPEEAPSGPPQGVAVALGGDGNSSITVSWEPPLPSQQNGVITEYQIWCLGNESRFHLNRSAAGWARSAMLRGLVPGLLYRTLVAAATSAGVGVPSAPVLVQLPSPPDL

[2] = target: T2, hRobo3 FN1-3 N600A/T601A, biotinylated (human, UniProt Q96MS0 549-870, N600A | T601A, biotin on the Avi-tag (BirA))
T2 construct: human Robo3, FN domains 1-3, P549-L870; source: High Five cells (baculovirus), purified, biotinylated with BirA (general methods)
T2 sequence (looked up): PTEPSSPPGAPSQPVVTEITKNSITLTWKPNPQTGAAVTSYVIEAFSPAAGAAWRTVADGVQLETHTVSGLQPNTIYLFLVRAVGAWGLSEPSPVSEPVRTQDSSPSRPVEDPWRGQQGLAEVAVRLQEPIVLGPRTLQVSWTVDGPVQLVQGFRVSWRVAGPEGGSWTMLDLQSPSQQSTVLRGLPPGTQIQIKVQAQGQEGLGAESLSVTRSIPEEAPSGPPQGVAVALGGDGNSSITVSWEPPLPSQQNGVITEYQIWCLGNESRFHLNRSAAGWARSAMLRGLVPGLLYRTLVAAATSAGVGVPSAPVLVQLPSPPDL

[3] = target: T3, hRobo3 FN1-3 F594A/W602A, biotinylated (human, UniProt Q96MS0 549-870, F594A | W602A, biotin on the Avi-tag (BirA))
T3 construct: human Robo3, FN domains 1-3, P549-L870; source: High Five cells (baculovirus), purified, biotinylated with BirA (general methods)
T3 sequence (looked up): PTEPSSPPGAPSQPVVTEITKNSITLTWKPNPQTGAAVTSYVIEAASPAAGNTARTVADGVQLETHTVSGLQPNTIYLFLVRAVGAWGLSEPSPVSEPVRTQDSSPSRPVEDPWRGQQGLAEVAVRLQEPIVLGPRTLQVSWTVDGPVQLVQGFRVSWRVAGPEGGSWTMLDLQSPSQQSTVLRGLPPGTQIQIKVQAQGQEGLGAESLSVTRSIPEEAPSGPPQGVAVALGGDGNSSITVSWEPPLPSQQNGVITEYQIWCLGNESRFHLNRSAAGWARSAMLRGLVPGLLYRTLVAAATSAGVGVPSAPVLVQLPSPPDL

Kd [1]: 1100 nM | Kd [2]: 2900 nM | Kd [3]: ≥ 100000 nM
B1: hNELL2 EGF1-6 displayed on S2 cells (domain or fragment)
chain: not shown
notes: human NELL2, EGF domains 1-6, G397-T637; also called NELL2EGF1-6 WT (Actin 5C, C-terminal FLAG); FLAG-tagged NELL2 EGF1-6; source: Drosophila S2 cells, transiently transfected, on the cell surface; not shown: FLAG, C-terminal, kept; transmembrane helix of rat Neurexin-1, C-terminal, kept
